The record followed here is publication PMC9279153, “Structure of the Dicer-2–R2D2 heterodimer bound to a small RNA duplex”.

For data set [1], the target named is T1, Dicer-2;R2D2 (Drosophila;Drosophila, UniProt A1ZAW0;Q9VLW8 1-1722;1-311, |). The data set can be described thus: photocrosslinking; crosslinks to R2D2, similar to 2-nt overhang; Crosslinking: 20 nM siRNA, 40 nM Dicer-2-R2D2, 30 min, >300 nm UV 60 s, buffer not given; structure: 30 mM Hepes-KOH pH 7.4, 100 mM potassium acetate, 2 mM magnesium acetate, 1 mM DTT, 0.02% glycerol, protein:siRNA 1:2 mixed at room temperature. The settings on record: protein: recombinant;recombinant; tags: 8xHis (structure prep);3xFlag; copies: 1;1; U-U mismatch at nt 1 of strand 1.

For data set [2], the target named is T1, Dicer-2;R2D2. The data set can be described thus: cryo-EM; two duplexes: one on R2D2 (well resolved), one on Dicer-2 helicase (poorly resolved); Crosslinking: 20 nM siRNA, 40 nM Dicer-2-R2D2, 30 min, >300 nm UV 60 s, buffer not given; structure: 30 mM Hepes-KOH pH 7.4, 100 mM potassium acetate, 2 mM magnesium acetate, 1 mM DTT, 0.02% glycerol, protein:siRNA 1:2 mixed at room temperature. The settings on record: protein: recombinant;recombinant; tags: 8xHis (structure prep);3xFlag; copies: 1;1; 19-nt duplex region with U-U mismatch at g1:p19; 3' overhang 2 nt on both strands.

In the next data set the target is Dicer-2;R2D2 K98A (Drosophila;Drosophila, UniProt A1ZAW0;Q9VLW8 1-1722;1-311, |K98A). As to the kind of experiment: photocrosslinking; g* crosslinking not affected by K98A; Crosslinking: 20 nM siRNA, 40 nM Dicer-2-R2D2, 30 min, >300 nm UV 60 s, buffer not given; structure: 30 mM Hepes-KOH pH 7.4, 100 mM potassium acetate, 2 mM magnesium acetate, 1 mM DTT, 0.02% glycerol, protein:siRNA 1:2 mixed at room temperature. As to conditions: protein: recombinant;recombinant; tags: 8xHis (structure prep);3xFlag; copies: 1;1; 3' overhang 2 nt on both strands.

Data set [3] concerns the target T1, Dicer-2;R2D2. As to the kind of experiment: photocrosslinking; g* crosslinks to R2D2; Crosslinking: 20 nM siRNA, 40 nM Dicer-2-R2D2, 30 min, >300 nm UV 60 s, buffer not given; structure: 30 mM Hepes-KOH pH 7.4, 100 mM potassium acetate, 2 mM magnesium acetate, 1 mM DTT, 0.02% glycerol, protein:siRNA 1:2 mixed at room temperature. As to conditions: protein: recombinant;recombinant; tags: 8xHis (structure prep);3xFlag; copies: 1;1; 3' overhang 2 nt on both strands.

In another data set the target is Dicer-2;R2D2 CTD Δα2 (Drosophila;Drosophila, UniProt A1ZAW0;Q9VLW8 1-1722;1-201+=GGGS+215-311, |internal_change). The data set can be described thus: photocrosslinking; g* crosslink to R2D2 abolished, g* crosslink to Dicer-2 increased (opposite orientation); Crosslinking: 20 nM siRNA, 40 nM Dicer-2-R2D2, 30 min, >300 nm UV 60 s, buffer not given; structure: 30 mM Hepes-KOH pH 7.4, 100 mM potassium acetate, 2 mM magnesium acetate, 1 mM DTT, 0.02% glycerol, protein:siRNA 1:2 mixed at room temperature. The settings on record: protein: recombinant;recombinant; tags: 8xHis (structure prep);3xFlag; copies: 1;1; 3' overhang 2 nt on both strands.

Data set [4] addresses T1, Dicer-2;R2D2. As to the kind of experiment: photocrosslinking; crosslinks to R2D2; Crosslinking: 20 nM siRNA, 40 nM Dicer-2-R2D2, 30 min, >300 nm UV 60 s, buffer not given; structure: 30 mM Hepes-KOH pH 7.4, 100 mM potassium acetate, 2 mM magnesium acetate, 1 mM DTT, 0.02% glycerol, protein:siRNA 1:2 mixed at room temperature. The settings on record: protein: recombinant;recombinant; tags: 8xHis (structure prep);3xFlag; copies: 1;1; 3' overhang 2 nt on strand 2; U-U mismatch at nt 1 of strand 1.

T1 sequence (A1ZAW0 whole entry, chain 1 of 2): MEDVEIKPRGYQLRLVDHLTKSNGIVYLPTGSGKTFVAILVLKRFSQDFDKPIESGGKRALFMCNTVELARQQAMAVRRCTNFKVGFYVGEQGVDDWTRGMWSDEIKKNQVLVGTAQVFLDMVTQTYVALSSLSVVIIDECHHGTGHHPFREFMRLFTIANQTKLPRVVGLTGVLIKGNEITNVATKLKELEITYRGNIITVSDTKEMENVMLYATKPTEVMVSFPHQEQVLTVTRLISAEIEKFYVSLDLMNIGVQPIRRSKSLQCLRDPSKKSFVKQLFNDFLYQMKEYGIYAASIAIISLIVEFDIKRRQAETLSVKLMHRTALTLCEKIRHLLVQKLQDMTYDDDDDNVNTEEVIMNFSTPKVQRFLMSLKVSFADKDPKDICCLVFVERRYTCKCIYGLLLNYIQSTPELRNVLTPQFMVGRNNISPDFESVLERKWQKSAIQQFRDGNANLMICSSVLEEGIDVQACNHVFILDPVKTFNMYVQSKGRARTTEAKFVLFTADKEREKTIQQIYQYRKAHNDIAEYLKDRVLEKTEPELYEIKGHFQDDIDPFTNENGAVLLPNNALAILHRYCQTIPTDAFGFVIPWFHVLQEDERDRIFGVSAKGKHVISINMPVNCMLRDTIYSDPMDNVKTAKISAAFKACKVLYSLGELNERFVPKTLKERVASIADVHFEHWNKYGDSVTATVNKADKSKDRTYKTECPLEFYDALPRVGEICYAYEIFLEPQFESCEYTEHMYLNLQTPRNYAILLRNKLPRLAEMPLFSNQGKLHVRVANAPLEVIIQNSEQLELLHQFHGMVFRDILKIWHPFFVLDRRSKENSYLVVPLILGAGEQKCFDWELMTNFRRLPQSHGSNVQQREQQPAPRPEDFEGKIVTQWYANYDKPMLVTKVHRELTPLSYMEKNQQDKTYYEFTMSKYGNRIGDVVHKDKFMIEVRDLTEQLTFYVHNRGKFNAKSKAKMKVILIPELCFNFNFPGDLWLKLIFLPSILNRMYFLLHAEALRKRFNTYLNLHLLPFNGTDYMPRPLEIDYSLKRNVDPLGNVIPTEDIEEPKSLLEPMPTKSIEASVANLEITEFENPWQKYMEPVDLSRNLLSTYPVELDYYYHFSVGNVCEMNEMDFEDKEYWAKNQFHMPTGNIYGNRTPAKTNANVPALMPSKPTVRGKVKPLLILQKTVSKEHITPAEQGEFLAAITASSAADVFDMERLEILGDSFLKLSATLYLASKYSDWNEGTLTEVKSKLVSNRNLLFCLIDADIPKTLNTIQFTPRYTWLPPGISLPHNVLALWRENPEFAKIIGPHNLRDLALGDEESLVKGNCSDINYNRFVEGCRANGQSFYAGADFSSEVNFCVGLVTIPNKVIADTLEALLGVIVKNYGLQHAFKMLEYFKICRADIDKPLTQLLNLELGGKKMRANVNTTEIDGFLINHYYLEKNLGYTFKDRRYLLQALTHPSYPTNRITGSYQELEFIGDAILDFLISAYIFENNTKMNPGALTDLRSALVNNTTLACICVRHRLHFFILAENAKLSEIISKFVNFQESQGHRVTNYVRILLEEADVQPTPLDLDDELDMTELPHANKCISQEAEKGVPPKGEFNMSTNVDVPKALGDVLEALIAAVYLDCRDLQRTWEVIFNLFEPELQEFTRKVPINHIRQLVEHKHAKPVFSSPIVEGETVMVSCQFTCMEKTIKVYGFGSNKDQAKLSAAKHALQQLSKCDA
T1 sequence (chain, as listed by the source |, chain 2 of 2): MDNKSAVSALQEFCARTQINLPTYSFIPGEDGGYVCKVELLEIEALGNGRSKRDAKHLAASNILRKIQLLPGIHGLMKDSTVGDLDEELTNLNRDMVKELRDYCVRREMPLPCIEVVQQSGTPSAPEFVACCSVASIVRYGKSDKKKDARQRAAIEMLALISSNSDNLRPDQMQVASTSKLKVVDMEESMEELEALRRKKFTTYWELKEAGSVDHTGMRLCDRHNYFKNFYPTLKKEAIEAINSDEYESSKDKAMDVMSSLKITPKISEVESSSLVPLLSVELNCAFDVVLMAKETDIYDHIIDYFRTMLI
Dicer-2;R2D2 CTD Δα2, sequence (A1ZAW0 whole entry, stated change not applied, chain 1 of 2): as the sequence (A1ZAW0 whole entry, chain 1 of 2) above
Dicer-2;R2D2 CTD Δα2, sequence (chain, as listed by the source | | mutant, chain 2 of 2): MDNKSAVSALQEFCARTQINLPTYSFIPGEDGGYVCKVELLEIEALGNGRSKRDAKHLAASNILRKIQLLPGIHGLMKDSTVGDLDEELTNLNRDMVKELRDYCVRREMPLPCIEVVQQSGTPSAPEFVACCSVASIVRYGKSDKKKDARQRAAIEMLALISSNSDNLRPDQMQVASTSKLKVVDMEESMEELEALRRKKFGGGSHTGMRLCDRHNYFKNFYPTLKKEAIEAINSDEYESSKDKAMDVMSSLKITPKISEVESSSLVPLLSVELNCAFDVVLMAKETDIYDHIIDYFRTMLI
Dicer-2;R2D2 K98A, sequence (A1ZAW0 whole entry, chain 1 of 2): as the sequence (A1ZAW0 whole entry, chain 1 of 2) above
Dicer-2;R2D2 K98A, sequence (chain, as listed by the source |K98A | K98A K98A, chain 2 of 2): as the sequence (chain, as listed by the source |, chain 2 of 2) above, with K98A counted along it

B1: g* siRNA, 1-nt overhang (siRNA-4/siRNA-2) (dsRNA)
RNA 1: UGAGGUAGUAGGUUGUAUAU
RNA 2: UAUACAACCUACUACCUCUUU
modifications: 5-iodouracil at position 20 of strand 1 (written as U)
Take B1: in the data set with Dicer-2;R2D2 [1], the binding result was “binds”.

B2: let-7 siRNA duplex (guide/passenger) (dsRNA)
RNA 1: UGAGGUAGUAGGUUGUAUAGU
RNA 2: UAUACAACCUACUACCUCUCU
modifications: 5'-phosphate (passenger p1)
For the molecule B2, in the data set with Dicer-2;R2D2 [2], the binding result is on record as “binds”.

B3: g* siRNA, 2-nt overhang (siRNA-1/siRNA-2) (dsRNA)
RNA 1: UGAGGUAGUAGGUUGUAUAUU
RNA 2: UAUACAACCUACUACCUCUUU
modifications: 5-iodouracil at position 20 of strand 1 (written as U)
For B3, the binding result with Dicer-2;R2D2 K98A, in the data set with Dicer-2;R2D2 [3] and with Dicer-2;R2D2 CTD Δα2 was “binds” each time.

B4: g* siRNA, blunt stable end (siRNA-4/siRNA-5) (dsRNA)
RNA 1: UGAGGUAGUAGGUUGUAUAU
RNA 2: AUAUACAACCUACUACCUCUUU
modifications: 5-iodouracil at position 20 of strand 1 (written as U)
In the case of B4, in the data set with Dicer-2;R2D2 [4], the binding result was “binds”.
